Drawing on US10519419B2, “Method for producing culture medium composition” (NISSAN CHEMICAL CORPORATION, priority 2014, dated 2019), this text covers state, viscosity and HeLa cell suspension/sedimentation for 1 substance.

Data set [1] is described as follows: State and viscosity measurement of medium composition (E type viscometer). The data set is classed as physicochemical. The following applies: DMEM/F-12; for viscosity: 37°C, 100 rpm. How it is done: The viscosity of the liquid containing the structure can be measured, for example, by the method described in the below-mentioned Examples. Specifically, it can be measured under 37° C. conditions and using an E-type viscosity meter (manufactured by Toki Sangyo Co., Ltd., TV-22 type viscosity meter, model: TVE-22L, corn roter: standard roter 1° 34′×R24, rotation number 100 rpm).
This aqueous solution was allowed to cool to room temperature with stirring, and sterilized at 121° C. for 20 min in an autoclave. […] The viscosity of the medium compositions was measured using an E type viscometer (manufactured by Toki Sangyo Co., Ltd., Viscometer TVE-22L, standard roter 1° 34′×R24) under 37° C. condition at 100 rpm for 5 min.
The medium compositions prepared above were subjected to a suspension test of HeLa cell spheres and a viscosity measurement, in the same manner as with the deacylated gellan gum-containing medium. The viscosity of 1.0% (w/v) methylcellulose was measured at 50 rpm due to the measurement range of the apparatus.

Data set [2] relates to HeLa cell spheres. The experiment in a line: Cell suspension test with HeLa cell spheres. It counts as cell-based, human. The following applies: DMEM/F-12, 37°C, 1 hr. As for the experimental part:
Human cervical cancer cell line HeLa (manufactured by DS PHARMA BIOMEDICAL CO., LTD.) was suspended in EMEM medium containing 10% (v/v) fetal bovine serum (manufactured by WAKO) at 250000 cells/mL, the suspension (10 mL) was plated on EZ SPHERE (manufactured by ASAHI GLASS CO., LTD.), and cultured in a CO2 incubator (5% CO2) for 3 days. The obtained suspension (10 mL) of spheres (diameter 100-200 μm) was centrifuged (200 G, 5 min) to allow for sphere sedimentation, and the supernatant was removed to give a sphere suspension (1.0 mL). Successively, the deacylated gellan gum-containing medium prepared above was placed in a 1.5 mL Eppendorf tube by 1.0 mL, and a HeLa cell sphere suspension (10 μL) was further added. The cell aggregate was dispersed by tapping, incubated at 37° C., and the dispersion state of the cells 1 hr later was visually observed.
In the same manner as in Reference Experimental Example 2, spheres of HeLa cells were formed, and several tens of the spheres were added to each medium (1 mL) prepared above, the mixture was stood still at 37° C. for 1 hr, and the suspended state of the sphere cells was visually observed. […] Furthermore, it was confirmed that addition of an equal amount of the medium to the cell suspension and centrifugation (300 to 400 G, 5 min) thereof result in sedimentation and recovery of the spheres of HeLa cells.
In the same manner as in Reference Experimental Example 2, spheres of HeLa cells were produced, and several tens of spheres were added to each medium (1 mL) prepared above, the mixture was stood still at 37° C. for 1 hr, and the suspended state of the sphere cells was visually observed. […] Furthermore, it was confirmed that centrifugation (200 G, 5 min) of the cell suspension containing 0.1% (w/v) diutan gum result in sedimentation and recovery of the spheres of HeLa cells.

In the case of collagen, the state result in data set [1] (collagen 0.01% (w/v)) is listed as “liquid”; in data set [1] (collagen 0.05% (w/v)) it was “liquid/solid”; in data set [1] (collagen 0.1% (w/v)), “solid (gel)”; in data set [1] (collagen 0.2% (w/v)), “solid (gel)”. Further, the viscosity in data set [1] (collagen 0.01% (w/v)) was 1.18 mPa · s; in data set [1] (collagen 0.05% (w/v)), “unmeasurable”; in data set [1] (collagen 0.1% (w/v)), “unmeasurable”; in data set [1] (collagen 0.2% (w/v)), “unmeasurable”. The HeLa cell suspension/sedimentation result in data set [2] (collagen 0.01% (w/v)) is “sedimentation”; in data set [2] (collagen 0.05% (w/v)), “suspension”; in data set [2] (collagen 0.1% (w/v)), “suspension”; in data set [2] (collagen 0.2% (w/v)), “suspension”.
